Results published in patent US20130280162A1.

B1: SMB-GFD/mFc (disulphide-linked homodimer) (Fc fusion)
chain: DQESCKGRCTEGFNVDKKCQCDELCSYYQSCCTDYTAECKPGGGGSGGGGSGGGGPSNCDCLNGGTCVSNKYFSNIHWCNCPKKFGGQHCEIDKSKGSGLEAGAGPRDCGCKPCICTVPEVSSVFIFPPKPKDVLTITLTPKVTCVVVDISKDDPEVQFSWFVDDVEVHTAQTKPREEQFNSTFRSVSELPIMHQDWLNGKEFKCRVNSAAFPAPIEKTISKTKGRPKAPQVYTIPPPKEQMAKDKVSLTCMITDFFPEDITVEWQWNGQPAENYKNTQPIMDTDGSYFVYSKLNVQKSNWEAGNTFTCSVLHEGLHNHHTEKSLSHSPGK
B2: GFD-SMB/mFc (disulphide-linked homodimer) (Fc fusion)
chain: SNELHQVPSNCDCLNGGTCVSNKYFSNIHWCNCPKKFGGQHCEIDKSKTGGGGSGGGGSGGGGQESCKGRCTEGFNVDKKCQCDELCSYYQSCCTDYTAECKPGSGLEAGAGPRDCGCKPCICTVPEVSSVFIFPPKPKDVLTITLTPKVTCVVVDISKDDPEVQFSWFVDDVEVHTAQTKPREEQFNSTFRSVSELPIMHQDWLNGKEFKCRVNSAAFPAPIEKTISKTKGRPKAPQVYTIPPPKEQMAKDKVSLTCMITDFFPEDITVEWQWNGQPAENYKNTQPIMDTDGSYFVYSKLNVQKSNWEAGNTFTCSVLHEGLHNHHTEKSLSHSPGK

Biological target: human uPAR on 293/uPAR cells (human) (UniProt Q03405)
Sequence (Q03405 23-305): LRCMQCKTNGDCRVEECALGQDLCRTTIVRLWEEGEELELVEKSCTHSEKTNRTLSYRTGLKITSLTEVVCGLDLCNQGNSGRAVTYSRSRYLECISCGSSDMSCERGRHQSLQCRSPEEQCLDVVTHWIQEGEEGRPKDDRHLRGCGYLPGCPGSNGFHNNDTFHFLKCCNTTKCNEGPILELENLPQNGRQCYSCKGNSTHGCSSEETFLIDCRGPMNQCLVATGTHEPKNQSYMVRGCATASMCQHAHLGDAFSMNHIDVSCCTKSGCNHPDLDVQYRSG
Experiment: cell-based or functional assay

| Binder | IC50, inhibition of 293/uPAR cell adhesion to VN (RTCA impedance, 1 h after addition) [nM] | maximal inhibition of 293/uPAR cell adhesion to VN [%] |
| --- | --- | --- |
| B1 | 6.3 | 60 |
| B2 | 20 | 60 |
